± gives the standard deviation.
Assay: protein stability index of a GFP-peptide fusion (GPS, HEK-293T) (PSI 1-6); higher = more stable
Conditions: c terminus: a fixed tail appended
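Also: 24-mer peptide tiles fused after GFP, lentivirally expressed, FACS-sorted into six equal bins by GFP/DsRed ratio, decoded by Illumina sequencing, PSI is the read-weighted mean bin number.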

Row | Sequence | protein stability index (treatment: DMSO) | protein stability index (treatment: MLN4924 1 uM, 8 h)
1 | WKNFDERKEMATILSKMPKPKPPP [CCNC] | 3.63 ± 0.28 | 3.64 ± 0.31
2 | NEYAYLPLHVHEEEGILVAVGQDC [DCAF4] | 3.75 ± 0.18 | 3.91 ± 0.12
3 | DFKNPIIEKYLRRQLTKPRPVILD [OAS1] | 2.46 ± 0.11 | 2.36 ± 0.2
4 | PDEANVGKHPKDKTEDENKQSFLD [TOR1AIP2] | 5.42 ± 0.21 | 5.75 ± 0.2
5 | WLSYRLLKASEPGLFAVGEHTGEV [PCDHGA10] | 2.35 ± 0.11 | 2.31 ± 0.16
6 | VPERLLVVLDMEEGTLGYAIGGTY [SPSB2] | 2.69 ± 0.74 | 2.35 ± 0.56
7 | EGSDYINASFIDGYRQQKAYIATQ [PTPRD] | 3.18 ± 0.25 | 3.34 ± 0.23
8 | SEEMIAEFKAAFDMFDADGGGDIS [TNNC2] | 5.16 ± 0.32 | 5.11 ± 0.43
9 | TMSRSLDGASVNENHEIYMKDSMS [EPB41L3] | 5 ± 0.17 | 4.72 ± 0.43
10 | TSSQKALMLELKSLQEEPVEGFRI [UBE2R2] | 3.11 ± 0.31 | 3.3 ± 0.24
11 | GSCEDEPMDSTMDDAVAGDFALIN [ATE1] | 5.25 ± 0.25 | 5.44 ± 0.16
12 | TENEEQTQLTQNAVSCPYLPSNLL [KCNA4] | 4.49 ± 0.27 | 4.63 ± 0.12
13 | GTVFQELNKLYPTHACREYLKNLP [TPH1] | 2.46 ± 0.34 | 2.38 ± 0.26
14 | PGQHLSDYSQLNESTTKESSEASQ [FBXO34] | 5.47 ± 0.28 | 5.6 ± 0.24
15 | SSENFDDYMKEVGVGFATRKVAGM [FABP4] | 3.27 ± 0.1 | 3.55 ± 0.3
16 | CISDELLENLCENASTLRTINIKC [FBXO39] | 2.47 ± 0.2 | 2.69 ± 0.28
17 | KHERTHEIIPINVNNNYEHRHTSH [SPRY1] | 3.68 ± 0.37 | 3.91 ± 0.34
18 | LIFLSNFPFSLLGLLALAIGLWGL [TSPAN10] | 3.21 ± 0.27 | 2.93 ± 0.25
19 | AWGPGTLAAAPEGLEDAGLDPHFV [TEX19] | 4.31 ± 0.25 | 4.37 ± 0.26
20 | CDEARNHYGGVVSLIPLILDLMKE [SPACA9] | 2.3 ± 0.29 | 2.36 ± 0.23
21 | IMLKNISQDERLDVLLTLKHTVKE [IQUB] | 2.45 ± 0.56 | 2.09 ± 0.34
22 | LPESGLLSVLQIAQQDLAPDPDAW [FANCE] | 4.06 ± 0.19 | 4.01 ± 0.22
23 | ESGKEEGMKIDLIDGKGRGVIATK [KMT5A] | 5.12 ± 0.41 | 5.39 ± 0.39

Row | Sequence | protein stability index (treatment: DMSO) | protein stability index (treatment: MLN4924 1 uM, 8 h)
24 | PGIDIREDLAQKLNLEEDRIQIWF [HESX1] | 2.55 ± 0.56 | 2.43 ± 0.41
25 | SSEDYRQLELVILQSEPHRAGVQW [KCNK9] | 2.41 ± 0.19 | 2.38 ± 0.29
26 | HAYFRGHSPSCLARVTGELTMTFP [FCHO1] | 2.21 ± 0.52 | 2.23 ± 0.13
27 | YIPRRLEEAAMQKCLVTEAQTLLR [RSAD1] | 2.34 ± 0.23 | 2.63 ± 0.17
28 | PPPPPPAQTFLFQGQPVVNRPLSL [TRADD] | 3.71 ± 0.4 | 3.99 ± 0.29
29 | EGSPRNLGTPTSSTPRPSITPTKK [C2CD2L] | 5.35 ± 0.19 | 5.34 ± 0.17
30 | LPEELRRLSGLSSVGHNWRKRMGT [C22orf15] | 2.99 ± 0.18 | 3.07 ± 0.22
31 | TIYGKTFRVVDCDQFTQVFLESQG [EFHC1] | 2.19 ± 0.25 | 2.29 ± 0.39
32 | NLIEKSASLDNGGCALTTFSVLEG [SOAT1] | 3.28 ± 0.37 | 3.32 ± 0.32
33 | RRSRDPGYDHLWDETLSSSHQKCP [PLEKHN1] | 3.81 ± 0.32 | 4.04 ± 0.13
34 | CRLKRCVDIGMMKEFILTDEEVQR [VDR] | 2.49 ± 0.28 | 2.53 ± 0.13
35 | MNLDIVDLLKKAKFHHSDCLSTWL [RHOBTB3] | 2.53 ± 0.4 | 2.44 ± 0.63
36 | FNLFCQKRFDESMQVFAKLGTDPT [VPS39] | 2.68 ± 0.36 | 2.68 ± 0.11
37 | VRVPNGGGGGGGLPISTVREVALL [CDK4] | 2.5 ± 0.33 | 2.63 ± 0.23
38 | HMIQGAGSLEKALPIIQSNQVSSN [DLC1] | 4.22 ± 0.23 | 4.27 ± 0.24
39 | VFHLPFYSSNQLHHFFCDIAPVLK [OR10K2] | 2.23 ± 0.48 | 2.12 ± 0.15
40 | VEVDTAPTVDLNQVLNETRSQYEA [KRT34] | 5.2 ± 0.17 | 5 ± 0.32
41 | TLIDGGEHYWEVRYEPDSKAFGVG [FSD1] | 2.65 ± 0.27 | 2.86 ± 0.39
42 | SSGAGSSPPAAPCPPPPGPAAAPE [ZBED3] | 5.36 ± 0.24 | 5.35 ± 0.085
43 | TPSSYAPSHPPRPLLPLDMQGNQI [ZBTB22] | 4.14 ± 0.1 | 4.3 ± 0.14
44 | EALITDPDEMRMQALLIRERILGP [FEM1A] | 3.56 ± 0.26 | 3.45 ± 0.26
45 | AAAHYTGDKASPDQNASTHTPQSS [CLINT1] | 5.52 ± 0.25 | 5.524 ± 0.042
46 | RRGLLVSLNELMIVIGILSAYISN [SLC2A12] | 3.05 ± 0.72 | 2.67 ± 0.84

Row | Sequence | protein stability index (treatment: DMSO) | protein stability index (treatment: MLN4924 1 uM, 8 h)
47 | YRQHCTLELGSYIKDLSVVHSDLS [CTDNEP1] | 2.4 ± 0.41 | 2.34 ± 0.25
48 | NNLTDRIVVIPGKVEEVSLPEQVD [CARM1] | 5.1 ± 0.13 | 5.27 ± 0.23
49 | HAAAVNGDKGALQRLIVGNSALKD [INVS] | 4.29 ± 0.25 | 4.29 ± 0.32
50 | DKLLKHMIIEHKIVIADVKLVADF [ZNF277] | 3.07 ± 0.33 | 2.82 ± 0.72
51 | SLAAFSVISVVSYLILALLSVTIS [RTN3] | 3.41 ± 0.21 | 2.8 ± 0.19
52 | LALGPILRLYKHNSQALLLHSSIL [MFSD9] | 3.12 ± 0.78 | 2.59 ± 0.37
53 | KEKLQKCLEPLEQKLQEITRCKSS [TRIM39] | 4.38 ± 0.22 | 4.44 ± 0.4
54 | KGLKKVVHETPAASKTVFFFFSSP [BTBD1] | 2.29 ± 0.54 | 2.29 ± 0.26
55 | PGPMGPPGPPGPTGVPGSPGHIGP [EMID1] | 4.82 ± 0.4 | 5.18 ± 0.34
56 | TRIEKRIVITGDADIDHDQALAQA [EPB41L3] | 4.48 ± 0.27 | 4.72 ± 0.25
57 | RAPLHSVGYTALVGSDAESWGWDL [SPSB4] | 2.81 ± 0.28 | 3.13 ± 0.17
58 | PDVLRTKPAFIGKTNLDGMITVQL [PTPRD] | 2.52 ± 0.53 | 2.13 ± 0.57
59 | LLSKYCGYREDNIPQLEDVSNFLK [TPH1] | 2.41 ± 0.59 | 2.61 ± 0.57
60 | LTKHEWTEALGCDPPLSQDERTHR [ZNF8] | 4.6 ± 0.2 | 4.72 ± 0.17
61 | LFLKDVLGDEICCWSFYGQGRKIA [KCTD13] | 2.64 ± 0.42 | 2.07 ± 0.55
62 | PGRPARLDQLLDMPAAGLAVQLRH [SPSB4] | 3.04 ± 0.36 | 3.33 ± 0.27
63 | LTIRESILINNGSRIKGWWVFHHY [TMEM120A] | 3.1 ± 0.7 | 2.73 ± 0.92
64 | TTSWGLLSLGALVALCWQLGLLFE [SCNN1D] | 2.11 ± 0.13 | 2.13 ± 0.37
65 | QVVVLVRDNGDPSLSSTATVLLVL [PCDHGC5] | 3.25 ± 0.44 | 3.17 ± 0.23
66 | SSCCLHICQGIRGLWGTTLTENTA [PKD2L1] | 2.07 ± 0.21 | 1.97 ± 0.24
67 | ITKQGDGVDFLSWFLNALHSALGG [USP39] | 2.22 ± 0.47 | 2.11 ± 0.21
68 | LLLLFGVAGGLVACRVTELQQQPL [LRRC59] | 2.77 ± 0.2 | 3.46 ± 0.55
69 | QIILENQKNFGLYVQEKRDGLKRR [RAD54B] | 2.41 ± 0.47 | 2.97 ± 0.32

Row | Sequence | protein stability index (treatment: DMSO) | protein stability index (treatment: MLN4924 1 uM, 8 h)
70 | HVDPEEPWSPCSARFITDFLDNGY [ADAMTS4] | 2.57 ± 0.39 | 2.88 ± 0.71
71 | HGHNIGKKMSCQQFIANLDQLNDG [PSD2] | 3.26 ± 0.24 | 3.29 ± 0.16
72 | PMVTSPREEQQLLASTSKPVVKLL [KCTD13] | 4.26 ± 0.32 | 4.25 ± 0.11
73 | TVRGATGIFPLSFVKILKDFPEED [NCF4] | 3.43 ± 0.51 | 3.57 ± 0.4
74 | LEGWRPDQLYRRKKDNHALVRETD [ELOA2] | 4.45 ± 0.16 | 4.57 ± 0.12
75 | KLRHDLKKTSITQQPSKHRTDEEL [PLK2] | 4.915 ± 0.039 | 5.1 ± 0.15
76 | LAVAGGPRKTAAPVNALVSHLLVV [ESRRA] | 2.92 ± 0.61 | 2.85 ± 0.55
77 | YQPLVTMDDAMERTVQSFRHLRRV [NSDHL] | 3.14 ± 0.24 | 3.22 ± 0.31
78 | YYKPGLLMMCFILPTLVPWYFWGE [SCD] | 3.24 ± 0.7 | 2.83 ± 0.52
79 | QPVMQSDRTAIRSDTTHLVTLGGV [KLHL13] | 3.88 ± 0.28 | 3.83 ± 0.35
80 | TECEPSELFQLQTYSLPPFLKAVL [CDS1] | 2.65 ± 0.22 | 2.56 ± 0.22
81 | EKEIPVLNELPVPMVARYIRINPQ [CPXM2] | 3.16 ± 0.26 | 3.25 ± 0.18
82 | LRITSGVVVCQCGLSIPSHSSELT [RPAIN] | 2.56 ± 0.65 | 2.48 ± 0.57
83 | LETLPEFRDEKDYPASTSQDSFEA [KCNA3] | 5.38 ± 0.37 | 5.41 ± 0.2
84 | FRCSVCSRQLLPGDEFSLREHELL [ISL2] | 2.39 ± 0.4 | 2.24 ± 0.59
85 | NHHSPGGSSDASGSYSSTMNGHQN [ESRRG] | 4.86 ± 0.23 | 5.05 ± 0.17
86 | PKMLVDLLSQKKTISFLGCAIQMF [OR10K2] | 2.84 ± 0.58 | 2.93 ± 0.62
87 | DEEVVATAGDRLTEFRKGAQSLPG [IRX6] | 5.12 ± 0.2 | 5.19 ± 0.22
88 | LKCEMNQMSGEPLDKLNFEAINFC [ACSBG2] | 2.92 ± 0.41 | 3.16 ± 0.31
89 | AHTATASAVEGAPPARPRPRSPEC [IRX6] | 5.37 ± 0.13 | 5.19 ± 0.28

From the supplement of paper PMC10567573
